This note sets out measurements from publication PMC2435421.

This assay addresses H-2D^b on RMA-S cells (mouse (endogenous in RMA-S)). Nature of the assay: flow cytometry on cells. In general terms: Flow cytometry measures light scatter and fluorescence of single cells or particles in a stream.

“gp33-wt, LCMV wild-type peptide antigen (gp33 residues 33-41)” showed a half-life of the peptide-MHC complex (Peptide stability) of over 1 h.
